Experimental data: publication PMC13269782

Biological target: T1, Cx47, human (human) (UniProt Q5T442)
T1 sequence: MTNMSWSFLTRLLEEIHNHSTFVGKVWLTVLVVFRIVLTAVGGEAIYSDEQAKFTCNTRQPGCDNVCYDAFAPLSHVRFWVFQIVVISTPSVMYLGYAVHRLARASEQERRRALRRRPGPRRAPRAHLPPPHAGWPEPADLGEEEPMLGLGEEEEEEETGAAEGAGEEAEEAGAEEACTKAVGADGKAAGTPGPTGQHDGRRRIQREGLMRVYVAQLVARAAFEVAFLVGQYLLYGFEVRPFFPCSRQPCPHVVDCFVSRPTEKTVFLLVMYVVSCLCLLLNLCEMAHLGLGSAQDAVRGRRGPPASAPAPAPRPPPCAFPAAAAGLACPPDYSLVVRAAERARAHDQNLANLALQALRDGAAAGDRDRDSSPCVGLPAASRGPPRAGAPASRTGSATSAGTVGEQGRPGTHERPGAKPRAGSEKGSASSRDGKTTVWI

- median junctional conductance (Gj), dual whole-cell patch clamp of DKO HEK293 cell pairs, homotypic; IQR 0.08–7.68; 20 pairs: 1.3 nS
B1: Cx47, human (natural protein)
chain: T1 sequence
